Patent US20240352438A1, “MEANS AND METHODS FOR DETOXIFYING OCHRATOXIN A” (DSM Austria GmbH, priority 2021, published 2024)
Substitutions are numbered along the chain they refer to.

B1: 287 (protein)
chain: MTTRTRILTAFLSLLAANACAADAAPAAPHTVVLRAARMFDGASGKLVDHPQLTIVGNKIVRIAQGDKAEVPAGAEVVDLGDATLLPGFIDAHVHLSGQSSDNWYGDFFDNMMRFPAEQALYGAYYARITLEAGFTSVRDVGSTDWVALGLRNAIDAGKVPGPRMLVSNYAVGSTGGHADQDPIPPHKLPLAGPLQGVCNGPEECRAAVRYQIKYGANVIKFMPSGGVISLSDPVDAPELSQDEMNAVIGESHAWGRKVAAHAHGDKAAKMAVAAGVDSIEHGSFIEDDTLRAMKAKNVYLVPTISAAAHVEEKIGTFPPVIAEKGRAAAAHLRQTFRHAVQIGVPIALGTDAGVGAHGSNAREFRYMVENGLTPAQALLAGTANAARLLGTFDRVGTLEAGKLADVVAVPGNPIADITVTERPLFVMKDGVVVRRDAVR
modifications: exemplary polypeptide
B2: 308 (protein)
chain: B1 chain with I229L, A330V
modifications: exemplary polypeptide
B3: 290 (protein)
chain: B1 chain with I229L, G356P
modifications: exemplary polypeptide
B4: 309 (protein)
chain: B1 chain with I229L, L333I
modifications: exemplary polypeptide
B5: 313 (protein)
chain: B1 chain with I229L, A308V, A330V
modifications: exemplary polypeptide
B6: 297 (protein)
chain: B1 chain with I229L, A308I, G354A, G356V
modifications: exemplary polypeptide
B7: 300 (protein)
chain: B1 chain with I229L, A308I, H310E, V355L
modifications: exemplary polypeptide
B8: 296 (protein)
chain: B1 chain with I229L, A308V, G356Y
modifications: exemplary polypeptide
B9: 295 (protein)
chain: B1 chain with I229L, A308V, G356P
modifications: exemplary polypeptide
B10: 304 (protein)
chain: B1 chain with I184V, A192L, I229L, A308I
modifications: exemplary polypeptide
B11: 312 (protein)
chain: B1 chain with I229L, A308V, A330M
modifications: exemplary polypeptide
B12: 299 (protein)
chain: B1 chain with I229L, A308I, H310D, V355L
modifications: exemplary polypeptide
B13: 311 (protein)
chain: B1 chain with I229L, A308V, A330L
modifications: exemplary polypeptide
B14: 306 (protein)
chain: B1 chain with I229L, A330L
modifications: exemplary polypeptide
B15: 303 (protein)
chain: B1 chain with I229L, A308I, V355L, G356P
modifications: exemplary polypeptide
B16: 310 (protein)
chain: B1 chain with I229L, L333M
modifications: exemplary polypeptide
B17: 305 (protein)
chain: B1 chain with I184V, A192M, I229L, A308I
modifications: exemplary polypeptide
B18: 294 (protein)
chain: B1 chain with I229L, A308V, G356F
modifications: exemplary polypeptide
B19: 307 (protein)
chain: B1 chain with I229L, A330M
modifications: exemplary polypeptide
B20: 301 (protein)
chain: B1 chain with I229L, A308I, V311A, V355L
modifications: exemplary polypeptide
B21: 288 (protein)
chain: B1 chain with I229L, A329V
modifications: exemplary polypeptide
B22: 292 (protein)
chain: B1 chain with A308V
modifications: exemplary polypeptide
B23: 315 (protein)
chain: B1 chain with I229L, A308V, L333M
modifications: exemplary polypeptide
B24: 289 (protein)
chain: B1 chain with I229L, G356F
modifications: exemplary polypeptide
B25: 291 (protein)
chain: B1 chain with I229L, G356Y
modifications: exemplary polypeptide

Test: Enzymatic activity comparison: activity remaining after 65° C. for 10 min at pH 6.0, relative to SEQ ID NO: 1
Assay type: physicochemical
Details: not given
Experimental: To compare the temperature behavior and thermostability of selected enzymes to one another, enzyme was incubated at 65° C. for 10 min at pH 6.0. The enzymatic activity remaining after incubation was compared to the remaining activity of the enzyme of SEQ ID NO: 1 after incubation, the latter being set to 100%, see Table 16.

Compared with B1, B2 is higher in “Enzymatic activity remaining after incubation, compared to SEQ ID NO: 1 (set to 100%)” value: 28% for the first, 39% for the second.

Compared with B3, B4 is lower in “Enzymatic activity remaining after incubation, compared to SEQ ID NO: 1 (set to 100%)” value: 53% for the first, 28% for the second.

Going from B5 to B6, the “Enzymatic activity remaining after incubation, compared to SEQ ID NO: 1 (set to 100%)” value rises from 20% to 32%.

First: B7
Second: B8
The “Enzymatic activity remaining after incubation, compared to SEQ ID NO: 1 (set to 100%)” value of the first is lower: 31% for the first, 43% for the second.

First: B9
Second: B10
The “Enzymatic activity remaining after incubation, compared to SEQ ID NO: 1 (set to 100%)” value of the first is lower: 41% for the first, 63% for the second.

First: B11
Second: B12
The “Enzymatic activity remaining after incubation, compared to SEQ ID NO: 1 (set to 100%)” value of the first is lower: 17% for the first, 27% for the second.

First: B13
Second: B14
The “Enzymatic activity remaining after incubation, compared to SEQ ID NO: 1 (set to 100%)” value of the first is lower: 30% for the first, 36% for the second.

Compared with B15, B16 is lower in “Enzymatic activity remaining after incubation, compared to SEQ ID NO: 1 (set to 100%)” value: 56% for the first, 39% for the second.

First: B17
Second: B18
The “Enzymatic activity remaining after incubation, compared to SEQ ID NO: 1 (set to 100%)” value of the first is lower: 35% for the first, 36% for the second.

B19 and B20 are the same in “Enzymatic activity remaining after incubation, compared to SEQ ID NO: 1 (set to 100%)” value: 35% for the first, 35% for the second.

First: B21
Second: B22
The “Enzymatic activity remaining after incubation, compared to SEQ ID NO: 1 (set to 100%)” value of the first is higher: 90% for the first, 21% for the second.

Compared with B23, B24 is higher in “Enzymatic activity remaining after incubation, compared to SEQ ID NO: 1 (set to 100%)” value: 29% for the first, 63% for the second.

In the case of B25, the “Enzymatic activity remaining after incubation, compared to SEQ ID NO: 1 (set to 100%)” value is reported as 34%.

Test: OTA detoxification activity assay (specific activity, fluorescence reduction ex/em 390/450 nm)
Assay type: biochemical
Details: pH 6.0; SEQ ID NO: 1 = 100%
Procedure, shortened: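 Recombinant enzyme preparation with 200 ng/mL OTA in 100 mM sodium phosphate, at pH 6.0 and pH 7.5, 37° C. Degradation followed as the fall in fluorescence at ex/em 390/450 nm. Specific activity taken from the initial linear slope; one unit degrades 1 μmol OTA per min at a starting OTA of […].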

First: B1
Second: B2
The “Specific OTA detoxification activities in % compared to the enzyme of SEQ ID NO: 1, pH 6.0” value of the first is lower: 151% for the first, 171% for the second.

First: B3
Second: B4
The “Specific OTA detoxification activities in % compared to the enzyme of SEQ ID NO: 1, pH 6.0” value of the first is higher: 160% for the first, 106% for the second.

First: B5
Second: B6
The “Specific OTA detoxification activities in % compared to the enzyme of SEQ ID NO: 1, pH 6.0” value of the first is lower: 84% for the first, 182% for the second.

Compared with B7, B8 is lower in “Specific OTA detoxification activities in % compared to the enzyme of SEQ ID NO: 1, pH 6.0” value: 152% for the first, 42% for the second.

Going from B9 to B10, the “Specific OTA detoxification activities in % compared to the enzyme of SEQ ID NO: 1, pH 6.0” value falls from 95% to 25%.

Compared with B11, B12 is higher in “Specific OTA detoxification activities in % compared to the enzyme of SEQ ID NO: 1, pH 6.0” value: 81% for the first, 156% for the second.

Compared with B13, B14 is higher in “Specific OTA detoxification activities in % compared to the enzyme of SEQ ID NO: 1, pH 6.0” value: 89% for the first, 114% for the second.

First: B15
Second: B16
The “Specific OTA detoxification activities in % compared to the enzyme of SEQ ID NO: 1, pH 6.0” value of the first is higher: 167% for the first, 78% for the second.

First: B17
Second: B18
The “Specific OTA detoxification activities in % compared to the enzyme of SEQ ID NO: 1, pH 6.0” value of the first is higher: 36% for the first, 31% for the second.

First: B19
Second: B20
The “Specific OTA detoxification activities in % compared to the enzyme of SEQ ID NO: 1, pH 6.0” value of the first is higher: 138% for the first, 55% for the second.

Going from B21 to B22, the “Specific OTA detoxification activities in % compared to the enzyme of SEQ ID NO: 1, pH 6.0” value rises from 29% to 77%.

Going from B23 to B24, the “Specific OTA detoxification activities in % compared to the enzyme of SEQ ID NO: 1, pH 6.0” value rises from 38% to 66%.

For B25, the “Specific OTA detoxification activities in % compared to the enzyme of SEQ ID NO: 1, pH 6.0” value was 77%.

Same assay, conditions: pH 7.5; SEQ ID NO: 1 = 100%

Going from B1 to B2, the “Specific OTA detoxification activities in % compared to the enzyme of SEQ ID NO: 1, pH 7.5” value rises from 105% to 117%.

Compared with B3, B4 is lower in “Specific OTA detoxification activities in % compared to the enzyme of SEQ ID NO: 1, pH 7.5” value: 122% for the first, 48% for the second.

Going from B5 to B6, the “Specific OTA detoxification activities in % compared to the enzyme of SEQ ID NO: 1, pH 7.5” value rises from 54% to 106%.

First: B7
Second: B8
The “Specific OTA detoxification activities in % compared to the enzyme of SEQ ID NO: 1, pH 7.5” value of the first is higher: 103% for the first, 38% for the second.

First: B9
Second: B10
The “Specific OTA detoxification activities in % compared to the enzyme of SEQ ID NO: 1, pH 7.5” value of the first is higher: 110% for the first, 24% for the second.

Going from B11 to B12, the “Specific OTA detoxification activities in % compared to the enzyme of SEQ ID NO: 1, pH 7.5” value rises from 64% to 95%.

First: B13
Second: B14
The “Specific OTA detoxification activities in % compared to the enzyme of SEQ ID NO: 1, pH 7.5” value of the first is lower: 48% for the first, 74% for the second.

Compared with B15, B16 is lower in “Specific OTA detoxification activities in % compared to the enzyme of SEQ ID NO: 1, pH 7.5” value: 110% for the first, 91% for the second.

Going from B17 to B18, the “Specific OTA detoxification activities in % compared to the enzyme of SEQ ID NO: 1, pH 7.5” value falls from 46% to 42%.

Compared with B19, B20 is lower in “Specific OTA detoxification activities in % compared to the enzyme of SEQ ID NO: 1, pH 7.5” value: 84% for the first, 43% for the second.

First: B21
Second: B22
The “Specific OTA detoxification activities in % compared to the enzyme of SEQ ID NO: 1, pH 7.5” value of the first is lower: 31% for the first, 81% for the second.

Compared with B23, B24 is higher in “Specific OTA detoxification activities in % compared to the enzyme of SEQ ID NO: 1, pH 7.5” value: 56% for the first, 106% for the second.

In the case of B25, the “Specific OTA detoxification activities in % compared to the enzyme of SEQ ID NO: 1, pH 7.5” value is reported as 79%.
